Experimental data from patent US10030233B2, “Modified P450 reductase with N-terminal deletions and endoplasmic reticulum retention tag” (DE MONTFORT UNIVERSITY, priority 2013, dated 2018).

B1: ΔN1hRD-M: human P450 reductase lacking N-terminal 24 amino acids, with C-terminal 12-amino acid c-myc tag; described in WO 2007/129050; gene SEQ ID NO: 5 (protein)
chain: MTDMILFSLIVGLLTYWFLFRKKKEEVPEFTKIQTLTSSVRESSFVEKMKKTGRNIIVFYGSQTGTAEEFANRLSKDAHRYGMRGMSADPEEYDLADLSSLPEIDNALVVFCMATYGEGDPTDNAQDFYDWLQETDVDLSGVKFAVFGLGNKTYEHFNAMGKYVDKRLEQLGAQRIFELGLGDDDGNLEEDFITWREQFWPAVCEHFGVEATGEESSIRQYELVVHTDIDAAKVYMGEMGRLKSYENQKPPFDAKNPFLAAVTTNRKLNQGTERHLMHLELDISDSKIRYESGDHVAVYPANDSALVNQLGKILGADLDVVMSLNNLDEESNKKHPFPCPTSYRTALTYYLDITNPPRTNVLYELAQYASEPSEQELLRKMASSSGEGKELYLSWVVEARRHILAILQDCPSLRPPIDHLCELLPRLQARYYSIASSSKVHPNSVHICAVVVEYETKAGRINKGVATNWLRAKEPAGENGGRALVPMFVRKSQFRLPFKATTPVIMVGPGTGVAPFIGFIQERAWLRQQGKEVGETLLYYGCRRSDEDYLYREELAQFHRDGALTQLNVAFSREQSHKVYVQHLLKQDREHLWKLIEGGAHIYVCGDARNMARDVQNTFYDIVAELGAMEHAQAVDYIKKLMTKGRYSLDVWSSSEQKLISEEDLNGSRL
modifications: delN1hRD-M
B2: ΔN1hRD-HDEL: human P450 reductase lacking N-terminal 24 amino acids, with C-terminal yeast ER retention signal HDEL (protein)
chain: MTDMILFSLIVGLLTYWFLFRKKKEEVPEFTKIQTLTSSVRESSFVEKMKKTGRNIIVFYGSQTGTAEEFANRLSKDAHRYGMRGMSADPEEYDLADLSSLPEIDNALVVFCMATYGEGDPTDNAQDFYDWLQETDVDLSGVKFAVFGLGNKTYEHFNAMGKYVDKRLEQLGAQRIFELGLGDDDGNLEEDFITWREQFWPAVCEHFGVEATGEESSIRQYELVVHTDIDAAKVYMGEMGRLKSYENQKPPFDAKNPFLAAVTTNRKLNQGTERHLMHLELDISDSKIRYESGDHVAVYPANDSALVNQLGKILGADLDVVMSLNNLDEESNKKHPFPCPTSYRTALTYYLDITNPPRTNVLYELAQYASEPSEQELLRKMASSSGEGKELYLSWVVEARRHILAILQDCPSLRPPIDHLCELLPRLQARYYSIASSSKVHPNSVHICAVVVEYETKAGRINKGVATNWLRAKEPAGENGGRALVPMFVRKSQFRLPFKATTPVIMVGPGTGVAPFIGFIQERAWLRQQGKEVGETLLYYGCRRSDEDYLYREELAQFHRDGALTQLNVAFSREQSHKVYVQHLLKQDREHLWKLIEGGAHIYVCGDARNMARDVQNTFYDIVAELGAMEHAQAVDYIKKLMTKGRYSLDVWSHDEL
modifications: delN1hRD-HDEL
notes: human P450 reductase lacking N-terminal 24 amino acids, with C-terminal yeast ER retention signal HDEL
B3: ΔN2hRD-HDEL: human P450 reductase lacking the 54-amino acid membrane anchoring region, with C-terminal yeast ER retention signal HDEL (protein)
chain: MTKIQTLTSSVRESSFVEKMKKTGRNIIVFYGSQTGTAEEFANRLSKDAHRYGMRGMSADPEEYDLADLSSLPEIDNALVVFCMATYGEGDPTDNAQDFYDWLQETDVDLSGVKFAVFGLGNKTYEHFNAMGKYVDKRLEQLGAQRIFELGLGDDDGNLEEDFITWREQFWPAVCEHFGVEATGEESSIRQYELVVHTDIDAAKVYMGEMGRLKSYENQKPPFDAKNPFLAAVTTNRKLNQGTERHLMHLELDISDSKIRYESGDHVAVYPANDSALVNQLGKILGADLDVVMSLNNLDEESNKKHPFPCPTSYRTALTYYLDITNPPRTNVLYELAQYASEPSEQELLRKMASSSGEGKELYLSWVVEARRHILAILQDCPSLRPPIDHLCELLPRLQARYYSIASSSKVHPNSVHICAVVVEYETKAGRINKGVATNWLRAKEPAGENGGRALVPMFVRKSQFRLPFKATTPVIMVGPGTGVAPFIGFIQERAWLRQQGKEVGETLLYYGCRRSDEDYLYREELAQFHRDGALTQLNVAFSREQSHKVYVQHLLKQDREHLWKLIEGGAHIYVCGDARNMARDVQNTFYDIVAELGAMEHAQAVDYIKKLMTKGRYSLDVWSHDEL
modifications: delN2hRD-HDEL
notes: human P450 reductase lacking the 54-amino acid membrane anchoring region, with C-terminal yeast ER retention signal HDEL
B4: hRD: wild-type human P450 reductase, full length, control (protein, listed as Homo sapiens)
chain: MGDSHVDTSSTVSEAVAEEVSLFSMTDMILFSLIVGLLTYWFLFRKKKEEVPEFTKIQTLTSSVRESSFVEKMKKTGRNIIVFYGSQTGTAEEFANRLSKDAHRYGMRGMSADPEEYDLADLSSLPEIDNALVVFCMATYGEGDPTDNAQDFYDWLQETDVDLSGVKFAVFGLGNKTYEHFNAMGKYVDKRLEQLGAQRIFELGLGDDDGNLEEDFITWREQFWPAVCEHFGVEATGEESSIRQYELVVHTDIDAAKVYMGEMGRLKSYENQKPPFDAKNPFLAAVTTNRKLNQGTERHLMHLELDISDSKIRYESGDHVAVYPANDSALVNQLGKILGADLDVVMSLNNLDEESNKKHPFPCPTSYRTALTYYLDITNPPRTNVLYELAQYASEPSEQELLRKMASSSGEGKELYLSWVVEARRHILAILQDCPSLRPPIDHLCELLPRLQARYYSIASSSKVHPNSVHICAVVVEYETKAGRINKGVATNWLRAKEPAGENGGRALVPMFVRKSQFRLPFKATTPVIMVGPGTGVAPFIGFIQERAWLRQQGKEVGETLLYYGCRRSDEDYLYREELAQFHRDGALTQLNVAFSREQSHKVYVQHLLKQDREHLWKLIEGGAHIYVCGDARNMARDVQNTFYDIVAELGAMEHAQAVDYIKKLMTKGRYSLDVWS

test system: not listed separately; test: MTT-based cytochrome P450 reductase assay on yeast microsomes; format: biochemical; details: relative to hRD = 1; 100 μg yeast microsomes, A610
From the text: The enzyme NADPH-cytochrome P450 reductase mediates the transfer of electrons from NADPH to cytochrome P450, other microsomal proteins and cytochrome c. It also catalyses the reduction of many drugs and other compounds such as potassium ferricyanide, 2,6-dichloroindopheonl, 1,1-diphenyl-2-picrylhydrazyl (DPPH), and mitomycin c. Tetrazolium salts are used extensively in cell proliferation and cytotoxicity assays, enzyme assays, histochemical procedures and bacteriological screening. […] The compound 3-(4,5-dimethylthiazol-2-yl)-2,5-diphenyltetrazolium bromide (MTT) is a monotetrazolium salt. The reduction of MTT is one of the most frequently used methods for measuring cell proliferation and cytotoxicity. Reduction of MTT by P450 reductase has been assessed as a method for monitoring yeast produced recombinant P450 reductase activity and the protocol was developed on the procedure published by Yim S-K, et al (Yim S-K., Y. C.-H. Ahn T., Hung H-C and Pan J-G. A continuous Spectrophotometric assay for NADPH-cytochrome P450 reductase activity using 3-(4,5 Dimethylthiazol-2-yl)-2,5-diphenyltetrazolium Bromide. Journal of Biology and Molecular Biology 38: 366-369, 2005). The principal advantage of this substance is that the reduction of MTT can be assayed directly in the reaction medium by a continuous spectrophotometirc method. The electrons released from NADPH by P450 reductase are transferred to MTT, and then the amounts of reduced MTT is assessed spectrophotometrically by measuring the increase in A610 values that is due to the formation of blue formazan. The extinction coefficient of MTT is 11.3 mM^−1 cm^−1. This method offers the advantages of short analysis time with the use of a relatively cheap commercial substrate. The classical assay uses recombinant cytochrome c as a substrate. […]
Disposable cuvettes were used for this experiment. […] The cuvette was quickly placed into the spectrophotometer together with the blank cuvette and its contents (that contained all components as in the other test cuvette but not the microsomes or cell supernatant) and the increase in the values at 610 nm was measured for a time period of 400 seconds. The electrons released from NADPH by recombinant P450 reductase enzyme were transferred to MTT, and the ability to reduce MTT was assessed spectrophotometrically by measuring the increase in A610 values as a result of the formation of blue formazan. The rate of MTT reduction was calculated from the change in A610 values using an extinction coefficient of 11.3 mM^−1 cm^−1 and the formula, ΔA610/min/11.3*0.1 mg/ml=μmole reduced MTT/min/mg of protein.

Question: For B1, which “μM of reduced MTT/min/mg of protein (Relative Rates)” value is on record?
Answer: The value was 2.5 ± 10%.

Question: Which “μM of reduced MTT/min/mg of protein (Relative Rates)” value does the source give for B2 here?
Answer: Its value is 3 ± 10%.

Question: Which “μM of reduced MTT/min/mg of protein (Relative Rates)” value does the source give for B3 here?
Answer: The value was 3.5 ± 10%.

Question: For B4, which “μM of reduced MTT/min/mg of protein (Relative Rates)” value is on record?
Answer: The value was 1.

target: T1, CYP2D6 (Homo sapiens, UniProt P10635, V374M); test: not given; format: biochemical; details: not given
T1 construct: A 1506 bp BamHI-XbaI fragment containing the human CYP2D6 gene; made in house; host or cells: Saccharomyces cerevisiae W303B, microsomes
T1 sequence (P10635 whole entry V374M, the tested form may be a part): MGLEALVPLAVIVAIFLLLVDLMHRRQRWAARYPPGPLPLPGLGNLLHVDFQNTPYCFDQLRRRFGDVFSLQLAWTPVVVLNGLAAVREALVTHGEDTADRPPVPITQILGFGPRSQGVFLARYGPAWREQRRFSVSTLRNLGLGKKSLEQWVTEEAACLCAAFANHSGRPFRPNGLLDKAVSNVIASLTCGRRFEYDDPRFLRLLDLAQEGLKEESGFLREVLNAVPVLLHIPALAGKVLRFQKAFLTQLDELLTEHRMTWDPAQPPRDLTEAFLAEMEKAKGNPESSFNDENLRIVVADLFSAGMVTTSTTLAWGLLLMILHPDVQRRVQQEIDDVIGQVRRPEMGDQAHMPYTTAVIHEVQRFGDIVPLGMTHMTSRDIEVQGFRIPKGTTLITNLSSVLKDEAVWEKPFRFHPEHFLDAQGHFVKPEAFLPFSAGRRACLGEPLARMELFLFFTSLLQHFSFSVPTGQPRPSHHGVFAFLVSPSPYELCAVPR

Question: For B1, which “pmoles of CYP2D6/mg of total protein (Relative Amounts)” value is on record?
Answer: Its value is 4 ± 10%.

Question: Which “pmoles of CYP2D6/mg of total protein (Relative Amounts)” value does the source give for B2 here?
Answer: Its value is 6 ± 10%.

Question: Which “pmoles of CYP2D6/mg of total protein (Relative Amounts)” value does the source give for B3 here?
Answer: Its value is 6 ± 10%.

Question: With B4 as the molecule, how does the “pmoles of CYP2D6/mg of total protein (Relative Amounts)” value read?
Answer: Its value is 1.

target: T2, CYP1A2 (Homo sapiens, UniProt P05177); test: not given; format: biochemical; details: not given
T2 construct: A 1563 bp BamHI-XhoI fragment containing the human CYP1A2 gene; made in house; host or cells: Saccharomyces cerevisiae W303B, microsomes
T2 sequence (P05177 1-516): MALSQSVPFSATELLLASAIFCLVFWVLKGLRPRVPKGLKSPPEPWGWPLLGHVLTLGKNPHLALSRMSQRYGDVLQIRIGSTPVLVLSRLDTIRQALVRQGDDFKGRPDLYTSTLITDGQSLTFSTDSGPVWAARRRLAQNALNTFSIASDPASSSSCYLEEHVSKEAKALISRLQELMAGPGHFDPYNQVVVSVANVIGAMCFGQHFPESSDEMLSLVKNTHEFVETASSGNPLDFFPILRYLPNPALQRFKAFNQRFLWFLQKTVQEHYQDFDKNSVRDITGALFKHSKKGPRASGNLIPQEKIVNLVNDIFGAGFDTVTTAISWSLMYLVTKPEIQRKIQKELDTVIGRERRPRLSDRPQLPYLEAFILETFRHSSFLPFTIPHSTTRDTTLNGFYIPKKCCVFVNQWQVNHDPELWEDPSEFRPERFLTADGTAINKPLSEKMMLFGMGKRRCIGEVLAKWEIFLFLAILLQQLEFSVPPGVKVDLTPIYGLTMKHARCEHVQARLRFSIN

Question: For B1, which “pmoles of CYP1A2/mg of total protein (Relative Amounts)” value is on record?
Answer: Its value is 4 ± 10%.

Question: Which “pmoles of CYP1A2/mg of total protein (Relative Amounts)” value does the source give for B2 here?
Answer: Its value is 6 ± 10%.

Question: For B3, which “pmoles of CYP1A2/mg of total protein (Relative Amounts)” value is on record?
Answer: The value was 6 ± 10%.

Question: For B4, which “pmoles of CYP1A2/mg of total protein (Relative Amounts)” value is on record?
Answer: Its value is 1.
